The labels stand for the following.
B1: mNeonGreen C-terminally fused to the native T3 targeting peptide (peptide)
chain: PLTVGSLRRGG
notes: native 11-residue targeting peptide of the M. xanthus (T3) encapsulin system; The targeting peptide is at the C-terminus of mNeonGreen; also called mNeonGreenTP (native T3 TP); native T3 TP; source: E. coli One shot BL21 (DE3) Star, pCDF-Duet1, IPTG induced before encapsulin; co-purified with encapsulin particles; not shown: mNeonGreen, N-terminal, kept
B2: mNeonGreen C-terminally fused to the T1 consensus targeting peptide (peptide)
chain: DGSLGIGSLKG
notes: consensus targeting peptide found in T1 encapsulin systems; The targeting peptide is at the C-terminus of mNeonGreen; also called mNeonGreenTP (T1 consensus TP); T1 consensus TP; source: E. coli One shot BL21 (DE3) Star, pCDF-Duet1, IPTG induced before encapsulin; co-purified with encapsulin particles; not shown: mNeonGreen, N-terminal, kept
B3: Thermotoga maritima encapsulin (T1 encapsulin shell) (natural protein, T. maritima)
chain: MEFLKRSFAPLTEKQWQEIDNRAREIFKTQLYGRKFVDVEGPYGWEYAAHPLGEVEVLSDENEVVKWGLRKSLPLIELRATFTLDLWELDNLERGKPNVDLSSLEETVRKVAEFEDEVIFRGCEKSGVKGLLSFEERKIECGSTPKDLLEAIVRALSIFSKDGIEGPYTLVINTDRWINFLKEEAGHYPLEKRVEECLRGGKIITTPRIEDALVVSERGGDFKLILGQDLSIGYEDREKDAVRLFITETFTFQVVNPEALILLKF
notes: encapsulin shell protein of Thermotoga maritima, T1 icosahedral shell, 24 nm, 60 subunits; Cloned into pBAD/HisA cut with NcoI and XhoI; also called T. maritima encapsulin protein; source: E. coli One shot BL21 (DE3) Star, pBAD/HisA, L-arabinose induced; purified as assembled particles (PEG-8000 precipitation, SEC, anion exchange); copies: 60
B4: mNeonGreen C-terminally fused to the native T1 targeting peptide (peptide)
chain: NTGGDLGIRK
notes: native targeting peptide of the T. maritima (T1) encapsulin system, from the C-terminus of the native cargo protein; The targeting peptide is at the C-terminus of mNeonGreen; also called mNeonGreenTP (native T1 TP); native T1 TP; source: E. coli One shot BL21 (DE3) Star, pCDF-Duet1, IPTG induced before encapsulin; co-purified with encapsulin particles; not shown: mNeonGreen, N-terminal, kept

The target of data set [1] is T1, Myxococcus xanthus encapsulin (T3 encapsulin shell) (M. xanthus, UniProt Q1D6H4 1-287).
T1 construct: encapsulin shell protein of Myxococcus xanthus, T3 icosahedral shell, 32 nm, 180 subunits; Cloned into pBAD/HisA cut with NcoI and XhoI; also called M. xanthus encapsulin protein; source: E. coli One shot BL21 (DE3) Star, pBAD/HisA, L-arabinose induced; purified as assembled particles (PEG-8000 precipitation, SEC, anion exchange); copies: 180
Description: bulk fluorescence of purified encapsulin particles (loading percentage); particles loaded in E. coli and purified; 15 ug/mL in 20 mM Tris, 100 mM NaCl, pH 8 with 1 mg/mL BSA; plate reader Ex 500 nm, Em 530 nm, 20 C; loading = percentage of occupied TP binding sites (T1: 60, T3: 180), mNeonGreen standard curve; triplicates. As to conditions: partners not purified.

Data set [2] has as its target B3. The data set is described as above. As to conditions: partners not purified.
Data set [3] concerns the molecule itself. Description: negative stain transmission electron microscopy; purified particles, 1 mg/mL in low salt buffer, uranyl formate stain, 80 keV.

T1 sequence (Q1D6H4 whole entry): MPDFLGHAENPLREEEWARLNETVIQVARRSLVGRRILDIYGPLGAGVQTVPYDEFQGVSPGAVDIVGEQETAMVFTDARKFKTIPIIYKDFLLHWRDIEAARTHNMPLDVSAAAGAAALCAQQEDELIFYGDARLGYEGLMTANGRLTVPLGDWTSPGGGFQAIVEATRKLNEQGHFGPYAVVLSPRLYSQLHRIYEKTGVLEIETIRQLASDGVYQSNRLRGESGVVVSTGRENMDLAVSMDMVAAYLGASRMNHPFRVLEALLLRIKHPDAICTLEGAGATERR

For B1, the “cargo proteins per shell” value in data set [1] is about 45 cargo proteins per shell. Regarding B2, the “cargo proteins per shell” value in data set [2] was about 2 cargo proteins per shell. In the case of B3, the binding result in data set [3] is on record as “binds”. For B4, the “cargo proteins per shell” value in data set [2] was about 2 cargo proteins per shell.

The values above are taken from article PMC7925596, “Exploring targeting peptide-shell interactions in encapsulin nanocompartments” (Scientific Reports, 2021).
